Measured values from patent publication US20130281314A1.

Tests used:
[1] = molecular target: BRCC36 (human) (UniProt P46736); experiment: anti-HA IP-MS, HEK293T cells
[2] = molecular target: OTUB1 (human) (UniProt Q96FW1); experiment: anti-HA IP-MS, HEK293T cells
[3] = molecular target: UCHL1 (UniProt P09936); experiment: anti-HA IP-MS, HEK293T cells
[4] = molecular target: UCHL5 (human) (UniProt Q9Y5K5); experiment: anti-HA IP-MS, HEK293T cells
[5] = molecular target: USP10; experiment: anti-HA IP-MS, HEK293T cells
[6] = molecular target: USP11 (human) (UniProt P51784); experiment: anti-HA IP-MS, HEK293T cells
[7] = molecular target: USP13 (human) (UniProt Q92995); experiment: anti-HA IP-MS, HEK293T cells
[8] = molecular target: USP14 (human) (UniProt P54578); experiment: anti-HA IP-MS, HEK293T cells
[9] = molecular target: USP15 (human) (UniProt Q9Y4E8); experiment: anti-HA IP-MS, HEK293T cells
[10] = molecular target: USP19 (human) (UniProt O94966); experiment: anti-HA IP-MS, HEK293T cells
[11] = molecular target: USP24 (human) (UniProt Q9UPU5); experiment: anti-HA IP-MS, HEK293T cells
[12] = molecular target: USP25 (human) (UniProt Q9UHP3); experiment: anti-HA IP-MS, HEK293T cells
[13] = molecular target: USP34; experiment: anti-HA IP-MS, HEK293T cells
[14] = molecular target: USP47 (human) (UniProt Q96K76); experiment: anti-HA IP-MS, HEK293T cells
[15] = molecular target: USP8 (human) (UniProt P40818); experiment: anti-HA IP-MS, HEK293T cells
[16] = molecular target: USP9X (human) (UniProt Q93008); experiment: anti-HA IP-MS, HEK293T cells
[17] = molecular target: BRCC36 (human) (UniProt P46736); experiment: anti-HA IP-MS, WT HCT116 cells
[18] = molecular target: OTUB1 (human) (UniProt Q96FW1); experiment: anti-HA IP-MS, WT HCT116 cells
[19] = molecular target: UCHL1 (UniProt P09936); experiment: anti-HA IP-MS, WT HCT116 cells
[20] = molecular target: UCHL5 (human) (UniProt Q9Y5K5); experiment: anti-HA IP-MS, WT HCT116 cells
[21] = molecular target: USP10; experiment: anti-HA IP-MS, WT HCT116 cells
[22] = molecular target: USP11 (human) (UniProt P51784); experiment: anti-HA IP-MS, WT HCT116 cells
[23] = molecular target: USP13 (human) (UniProt Q92995); experiment: anti-HA IP-MS, WT HCT116 cells
[24] = molecular target: USP14 (human) (UniProt P54578); experiment: anti-HA IP-MS, WT HCT116 cells
[25] = molecular target: USP15 (human) (UniProt Q9Y4E8); experiment: anti-HA IP-MS, WT HCT116 cells
[26] = molecular target: USP24 (human) (UniProt Q9UPU5); experiment: anti-HA IP-MS, WT HCT116 cells
[27] = molecular target: USP25 (human) (UniProt Q9UHP3); experiment: anti-HA IP-MS, WT HCT116 cells
[28] = molecular target: USP34; experiment: anti-HA IP-MS, WT HCT116 cells
[29] = molecular target: USP47 (human) (UniProt Q96K76); experiment: anti-HA IP-MS, WT HCT116 cells
[30] = molecular target: USP8 (human) (UniProt P40818); experiment: anti-HA IP-MS, WT HCT116 cells
[31] = molecular target: USP9X (human) (UniProt Q93008); experiment: anti-HA IP-MS, WT HCT116 cells

BRCC36 (human), sequence (P46736 2-316 limits assumed): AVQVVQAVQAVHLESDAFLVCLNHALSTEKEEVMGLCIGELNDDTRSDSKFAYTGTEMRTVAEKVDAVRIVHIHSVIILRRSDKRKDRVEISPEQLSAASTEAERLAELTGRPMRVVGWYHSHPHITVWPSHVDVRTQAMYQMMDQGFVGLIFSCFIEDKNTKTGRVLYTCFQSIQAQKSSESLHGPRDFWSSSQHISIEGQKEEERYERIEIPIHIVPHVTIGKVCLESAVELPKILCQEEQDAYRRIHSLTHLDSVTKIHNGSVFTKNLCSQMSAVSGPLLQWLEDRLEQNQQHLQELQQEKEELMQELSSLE
USP24 (human), sequence (Q9UPU5 whole entry): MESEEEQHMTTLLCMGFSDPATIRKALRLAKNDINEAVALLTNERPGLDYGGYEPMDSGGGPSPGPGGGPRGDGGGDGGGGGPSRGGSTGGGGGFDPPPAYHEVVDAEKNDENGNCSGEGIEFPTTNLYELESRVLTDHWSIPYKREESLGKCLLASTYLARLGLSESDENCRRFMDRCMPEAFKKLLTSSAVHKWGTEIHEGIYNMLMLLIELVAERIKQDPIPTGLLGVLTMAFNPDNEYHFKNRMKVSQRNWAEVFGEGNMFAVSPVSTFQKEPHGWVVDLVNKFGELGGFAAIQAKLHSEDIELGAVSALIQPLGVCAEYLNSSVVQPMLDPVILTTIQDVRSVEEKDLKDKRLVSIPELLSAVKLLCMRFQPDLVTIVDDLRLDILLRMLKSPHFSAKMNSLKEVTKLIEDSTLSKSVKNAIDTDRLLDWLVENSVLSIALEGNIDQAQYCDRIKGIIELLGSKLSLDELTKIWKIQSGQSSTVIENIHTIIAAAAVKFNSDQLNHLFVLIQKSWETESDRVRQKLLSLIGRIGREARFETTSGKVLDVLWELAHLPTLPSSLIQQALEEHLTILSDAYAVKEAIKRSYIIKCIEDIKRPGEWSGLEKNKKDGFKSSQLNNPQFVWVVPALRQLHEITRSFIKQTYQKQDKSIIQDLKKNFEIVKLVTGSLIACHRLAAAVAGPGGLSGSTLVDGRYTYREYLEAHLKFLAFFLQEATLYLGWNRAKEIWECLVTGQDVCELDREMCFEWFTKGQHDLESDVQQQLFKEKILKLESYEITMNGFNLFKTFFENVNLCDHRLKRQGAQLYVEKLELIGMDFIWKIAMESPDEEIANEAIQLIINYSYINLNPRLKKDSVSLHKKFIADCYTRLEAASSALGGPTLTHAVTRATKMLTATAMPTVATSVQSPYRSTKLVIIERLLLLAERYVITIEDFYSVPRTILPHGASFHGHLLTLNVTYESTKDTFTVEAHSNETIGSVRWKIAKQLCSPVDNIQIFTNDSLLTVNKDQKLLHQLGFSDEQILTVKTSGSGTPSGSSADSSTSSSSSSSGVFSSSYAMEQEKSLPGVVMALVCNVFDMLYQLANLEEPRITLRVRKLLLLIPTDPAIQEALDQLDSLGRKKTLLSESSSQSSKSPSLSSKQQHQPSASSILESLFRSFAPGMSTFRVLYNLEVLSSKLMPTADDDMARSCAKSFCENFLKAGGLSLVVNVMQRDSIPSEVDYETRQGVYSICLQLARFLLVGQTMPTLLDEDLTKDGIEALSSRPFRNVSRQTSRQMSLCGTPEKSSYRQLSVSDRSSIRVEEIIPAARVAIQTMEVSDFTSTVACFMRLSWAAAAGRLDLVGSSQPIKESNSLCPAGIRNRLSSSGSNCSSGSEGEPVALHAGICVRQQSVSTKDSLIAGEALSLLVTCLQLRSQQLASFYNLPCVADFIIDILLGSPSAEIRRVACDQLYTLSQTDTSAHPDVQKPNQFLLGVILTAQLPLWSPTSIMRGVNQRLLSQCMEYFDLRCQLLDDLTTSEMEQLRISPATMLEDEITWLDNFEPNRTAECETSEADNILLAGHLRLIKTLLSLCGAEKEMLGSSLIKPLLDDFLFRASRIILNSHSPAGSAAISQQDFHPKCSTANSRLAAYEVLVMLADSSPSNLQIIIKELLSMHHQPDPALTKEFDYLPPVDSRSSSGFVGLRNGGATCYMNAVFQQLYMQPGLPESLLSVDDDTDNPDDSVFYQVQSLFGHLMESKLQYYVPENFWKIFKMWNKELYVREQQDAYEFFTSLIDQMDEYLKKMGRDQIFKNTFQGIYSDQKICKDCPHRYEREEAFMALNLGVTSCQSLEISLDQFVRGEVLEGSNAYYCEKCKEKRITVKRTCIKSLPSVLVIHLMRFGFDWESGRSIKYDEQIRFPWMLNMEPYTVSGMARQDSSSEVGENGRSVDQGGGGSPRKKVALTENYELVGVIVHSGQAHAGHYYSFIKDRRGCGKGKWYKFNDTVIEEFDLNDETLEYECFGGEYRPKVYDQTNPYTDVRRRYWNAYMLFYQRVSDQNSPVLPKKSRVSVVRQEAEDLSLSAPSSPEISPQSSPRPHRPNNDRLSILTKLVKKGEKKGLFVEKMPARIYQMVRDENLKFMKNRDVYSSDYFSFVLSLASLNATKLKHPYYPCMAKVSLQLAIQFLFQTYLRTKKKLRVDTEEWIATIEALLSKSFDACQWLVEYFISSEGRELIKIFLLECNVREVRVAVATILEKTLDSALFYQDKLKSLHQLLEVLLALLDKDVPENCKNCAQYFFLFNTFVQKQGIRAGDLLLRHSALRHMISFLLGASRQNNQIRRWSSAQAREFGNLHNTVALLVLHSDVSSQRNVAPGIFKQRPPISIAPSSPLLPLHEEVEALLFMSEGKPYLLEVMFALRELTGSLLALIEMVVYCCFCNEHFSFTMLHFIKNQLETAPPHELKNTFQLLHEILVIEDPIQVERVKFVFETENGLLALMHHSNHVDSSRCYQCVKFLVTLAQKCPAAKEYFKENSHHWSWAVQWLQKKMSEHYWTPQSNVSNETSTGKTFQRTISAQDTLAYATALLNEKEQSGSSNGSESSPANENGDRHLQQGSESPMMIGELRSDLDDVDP
UCHL5 (human), sequence (Q9Y5K5 whole entry): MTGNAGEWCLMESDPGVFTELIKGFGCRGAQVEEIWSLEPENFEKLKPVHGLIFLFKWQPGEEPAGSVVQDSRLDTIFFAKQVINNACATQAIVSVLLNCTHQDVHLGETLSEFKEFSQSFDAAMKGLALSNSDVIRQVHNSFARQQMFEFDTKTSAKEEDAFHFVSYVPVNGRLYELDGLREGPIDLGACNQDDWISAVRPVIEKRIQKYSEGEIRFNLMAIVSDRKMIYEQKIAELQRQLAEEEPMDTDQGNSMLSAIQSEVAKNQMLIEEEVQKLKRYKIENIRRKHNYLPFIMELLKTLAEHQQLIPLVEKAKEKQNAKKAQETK
USP15 (human), sequence (Q9Y4E8 2-981 limits assumed): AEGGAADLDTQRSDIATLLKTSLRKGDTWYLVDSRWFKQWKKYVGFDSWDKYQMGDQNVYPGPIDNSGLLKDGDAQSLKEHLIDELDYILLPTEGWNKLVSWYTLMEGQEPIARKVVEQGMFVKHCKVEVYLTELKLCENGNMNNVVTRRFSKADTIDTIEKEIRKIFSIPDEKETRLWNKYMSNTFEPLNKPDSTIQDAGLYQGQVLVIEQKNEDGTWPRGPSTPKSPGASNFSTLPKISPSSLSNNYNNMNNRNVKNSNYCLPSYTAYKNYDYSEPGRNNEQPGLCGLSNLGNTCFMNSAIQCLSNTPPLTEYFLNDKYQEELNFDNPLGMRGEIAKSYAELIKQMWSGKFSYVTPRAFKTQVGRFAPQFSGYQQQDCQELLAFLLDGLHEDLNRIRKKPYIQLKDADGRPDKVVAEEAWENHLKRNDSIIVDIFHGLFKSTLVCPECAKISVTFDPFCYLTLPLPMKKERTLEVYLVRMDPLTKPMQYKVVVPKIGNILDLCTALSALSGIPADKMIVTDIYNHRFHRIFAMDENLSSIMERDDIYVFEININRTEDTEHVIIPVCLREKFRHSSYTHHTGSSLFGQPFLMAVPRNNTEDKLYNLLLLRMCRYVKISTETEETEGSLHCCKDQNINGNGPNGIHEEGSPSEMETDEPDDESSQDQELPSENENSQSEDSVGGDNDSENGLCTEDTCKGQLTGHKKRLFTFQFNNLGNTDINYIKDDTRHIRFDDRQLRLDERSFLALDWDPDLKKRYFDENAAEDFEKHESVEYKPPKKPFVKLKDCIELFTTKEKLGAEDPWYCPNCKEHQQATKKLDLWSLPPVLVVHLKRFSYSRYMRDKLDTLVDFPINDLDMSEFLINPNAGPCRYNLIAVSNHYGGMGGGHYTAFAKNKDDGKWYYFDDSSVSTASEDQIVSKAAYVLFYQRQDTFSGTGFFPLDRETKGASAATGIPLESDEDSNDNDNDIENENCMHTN
UCHL1, sequence (P09936 1-220 limits assumed): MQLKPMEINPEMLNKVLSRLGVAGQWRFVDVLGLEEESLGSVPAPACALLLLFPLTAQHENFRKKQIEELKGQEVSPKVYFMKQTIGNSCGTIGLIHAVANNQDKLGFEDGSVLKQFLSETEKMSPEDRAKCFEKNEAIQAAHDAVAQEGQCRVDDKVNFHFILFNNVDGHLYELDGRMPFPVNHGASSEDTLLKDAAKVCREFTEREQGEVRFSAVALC
USP14 (human), sequence (P54578 whole entry): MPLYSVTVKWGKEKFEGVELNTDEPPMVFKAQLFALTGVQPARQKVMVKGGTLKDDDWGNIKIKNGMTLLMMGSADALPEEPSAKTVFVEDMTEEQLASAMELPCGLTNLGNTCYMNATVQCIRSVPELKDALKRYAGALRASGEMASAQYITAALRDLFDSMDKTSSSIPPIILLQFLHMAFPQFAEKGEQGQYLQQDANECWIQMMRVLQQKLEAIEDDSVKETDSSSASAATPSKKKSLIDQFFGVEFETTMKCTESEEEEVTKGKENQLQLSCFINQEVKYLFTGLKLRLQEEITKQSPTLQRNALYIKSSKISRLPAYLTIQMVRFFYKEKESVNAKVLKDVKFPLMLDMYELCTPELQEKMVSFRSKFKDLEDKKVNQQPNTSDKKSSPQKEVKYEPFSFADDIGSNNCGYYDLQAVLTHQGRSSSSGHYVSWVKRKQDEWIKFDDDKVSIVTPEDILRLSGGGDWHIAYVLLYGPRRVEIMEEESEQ

total peptides (unique peptides) [1]: 0 peptides | total peptides (unique peptides) [2]: 9 peptides | total peptides (unique peptides) [3]: 3 peptides | total peptides (unique peptides) [4]: 9 peptides | total peptides (unique peptides) [5]: 6 peptides | total peptides (unique peptides) [6]: 4 peptides | total peptides (unique peptides) [7]: 0 peptides | total peptides (unique peptides) [8]: 4 peptides | total peptides (unique peptides) [9]: 1 peptides | total peptides (unique peptides) [10]: 54 peptides | total peptides (unique peptides) [11]: 20 peptides | total peptides (unique peptides) [12]: 2 peptides | total peptides (unique peptides) [13]: 1 peptides | total peptides (unique peptides) [14]: 2 peptides | total peptides (unique peptides) [15]: 1 peptides | total peptides (unique peptides) [16]: 40 peptides | total peptides (unique peptides) [17]: 1 peptides | total peptides (unique peptides) [18]: 10 peptides | total peptides (unique peptides) [19]: 0 peptides | total peptides (unique peptides) [20]: 6 peptides | total peptides (unique peptides) [21]: 8 peptides | total peptides (unique peptides) [22]: 10 peptides | total peptides (unique peptides) [23]: 1 peptides | total peptides (unique peptides) [24]: 3 peptides | total peptides (unique peptides) [25]: 7 peptides | total peptides (unique peptides) [26]: 1 peptides | total peptides (unique peptides) [27]: 34 peptides | total peptides (unique peptides) [28]: 0 peptides | total peptides (unique peptides) [29]: 0 peptides | total peptides (unique peptides) [30]: 3 peptides | total peptides (unique peptides) [31]: 12 peptides
Substance: HA-UbΔGG
